Measurements from the RNAGym collection of RNA variant scans (doi:10.1073/pnas.2313332121).

B1: TPR t1 (parent)
chain: GACCAAUCUGCCCUCAGAGCUCGAGAACAUCUUCGGAUGCAGAGGAGGCAGGCUUCGGUGGCGCGAUAGCGCCAACGUCCUCAACCUCCAAUGCAUCCCACCACAUGAUGAUGCCUGAAGAGCCUUGGUUUUUUG

Variants of: B1
Experiment: polymerase ribozyme fitness, log enrichment relative to wild type (log ratio); higher = more active; in vitro selection for triplet polymerase activity
In short: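 For each subunit of a heterodimeric triplet polymerase ribozyme, a mutant library was built by PCR and transcribed, then taken through a single in vitro selection round in triplicate. Selection involved annealing to a biotinylated primer, the partner subunit and triplets, incubation frozen at −7 °C, gel excision of extended constructs, capture on streptavidin beads and RT-PCR. Genotypes were retained after Illumina sequencing of inputs and outputs only with ≥10 input reads and ≥1 read in each output. Fitness is defined as the logarithm of a genotype's enrichment relative to wild-type enrichment, using inverse-variance-weighted averages across replicates, with the logarithm taken to base 2.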

Row | Variant | polymerase ribozyme fitness (log ratio)
1 | A26G A66C G113C U126G | -6.73
2 | C22G C80A C101U C124A | -3.81
3 | G25U C56G G63C A121U | -5.04
4 | C22A G51C C72A | -6.53
5 | A26U G52A | -4.18
6 | C22G G47U A111C | -5.82
7 | A26G G93A C114A | -3.14
8 | G25U G39U U106A C114U | -5.15
9 | C22U G39A C64U C99U U130C | -6.29
10 | G25U C64G C94U C124G | -6.12
11 | G23U A26C A43U G63U G93A G117C | -6.53
12 | C22U C56G G60A | -5.5
13 | C22A C73A G120A | -4.58
14 | A24G G69A | -4.71
15 | A24G G69U | -0.509
16 | G25U C53A G69U G107A U116G C123U | -7.07
17 | C22G C80U | -4.33
18 | C22A U81C | -5.67
19 | A24C A50C G52U A111C | -6.93
20 | U21G G36A | -2.46
21 | A27C A74C | -3.6
22 | U21G A84U C114A | -1.88
23 | A26G G63C | -1.65
24 | A26U A121U | -0.422

Row | Variant | polymerase ribozyme fitness (log ratio)
25 | A26U U54C | -2.99
26 | A26U C49U A66G A84C C124G | -4.9
27 | A26G C94G A105C C123G | -5.27
28 | C22G G47C U59C U92G C97A A111G | -6.83
29 | G23U G60U G65C C99G C123U | -7.81
30 | A26C C73A U81C C88A A108G C114G A119U | -6.8
31 | C22G G61A C86U C123A | -4.09
32 | A24G G42U G45A C72G C88A A121G U125C | -2.21
33 | C22A G63U C101U | -6.16
34 | C22G A37C U92C G120C | -4.95
35 | C22U C72A A100C | -4.76
36 | U21G G23U A27G A83C U112G | -7.42
37 | C22U C101A G122A | -6.14
38 | C22U A50C C102U C124G | -5.01
39 | A26U C94U | -2.76
40 | C22U C70U | -4.14
41 | C22A A27C C56U C114A U125A | -4.58
42 | C22G G36C | -3.09
43 | A24U C124G | -5.19
44 | A24U C124U | -5.45
45 | G25C A119G | -6.74
46 | A26U G117A | -5.38
47 | G23A C64G C115U C123G | -6.62
48 | G23A C72U | -5.21

Row | Variant | polymerase ribozyme fitness (log ratio)
49 | G23A C72G | -4.87
50 | G23A A26G C104A | -5.12
51 | C22G C101A | -3.82
52 | G25C C97U C104A U109G | -6.31
53 | C22U G120U | -3.75
54 | U21G C31U U78C C85A U112G | -5.44
55 | C22A U96G | -4.9
56 | G23U A26G A37U G69U | -5.18
57 | C22A G71U | -5.61
58 | C22G A29U G69C C89A G110U | -5.19
59 | A24G C49A G65C C70A G113U | -6.47
60 | C22U C70U C88G | -6.53
61 | G25U G69U | -4.36
62 | G25C G35A G44C C114G | -5.95
63 | G25A C70A | -6.74
64 | A26G G45A | -2.64
65 | G23U U112G C114U C124G U125C | -7.12
66 | A26G U30A C104G C115A | -5.53
67 | A26G C73A A74U U78A | -2.49
68 | U21G G47A C114A C123G U125A | -1.52
69 | G23C A26G C98U A105G C114G | -7.07
70 | C22U G51A | -4.81
71 | A24G G47A | -2.63
72 | A24U G60A | -4.63

Row | Variant | polymerase ribozyme fitness (log ratio)
73 | A26U C62G C124A | -3.42
74 | U21G C56U A111G U112G | -0.871
75 | A26G C56U | -1.28
76 | A26U A37U G52U A90U U112C | -6.53
77 | A24G C115A | -1.25
78 | A27C A50C A84C G120A | -3.23
79 | G25U C72U C88A U109C A119U C123U | -8.09
80 | A24G G113A | -3.26
81 | C22U U106G C115U | -6.69
82 | G23A G77A | -6.34
83 | A24G C40U C62G | -3.54
84 | A26U G48A C72U | -3.67
85 | G23C G69A G120A A121U C123U U129C | -6.52
86 | G25C C34G C70A C104G G110U U116G | -8.24
87 | A26U C49U C98U | -4.89
88 | C22G C56G C86U C124U | -3.03
89 | A24U A46G G48A C70A A111G | -6.69
90 | A24C G51U G61C C79A C102A G110U | -6.53
91 | A26C A43G G69A U78G C82G C115A C123U U130G | -6.36
92 | G23C C70G | -7.47
93 | C22A U112A C114G | -1.84
94 | G23A U106A | -3.44
95 | C22U C56G U78A | -3.95
96 | A26U A41C | -4.03

Row | Variant | polymerase ribozyme fitness (log ratio)
97 | A26G C49U C64U U87A | -3.25
98 | G23U C124A | -4.31
99 | A26C C82A | -5.2
100 | A24G G110A U116G C124A | -6.51
101 | A26G U59A C62A G63A | -5.96
102 | A24G G63C G71U C123G | -5.78
103 | A26C C88U | -5.08
104 | G25U G47U | -6.74
105 | U21G C73U | -1.84
106 | A26G A29G G39U | -3.81
107 | A26G G120U | -1.88
108 | A26G C28A G113A | -4.3
109 | G23U C64U | -4.56
110 | C22G A84G | -4.29
111 | A24G C102U | -3.7
112 | G25A A121C | -4.05
113 | A24U G117U | -6.09
114 | C22G A83C | -3.33
115 | G25A C64U | -4.8
116 | A26U C53U A74G G77U U125A | -4.77
117 | G23U C31G C102G C124A | -6.83
118 | C22A C53A C94U G110U | -6.9
119 | C22A A29G | -4.8
120 | C22U U131A | -3.95

Row | Variant | polymerase ribozyme fitness (log ratio)
121 | A27C A41C U106C | -5.25
122 | A24G A46U C62G | -5.81
123 | C22A C34G | -6.64
124 | G25A A26U A43G G61C U78A C102U G110C | -7.68
125 | A24C U32C C73A U96G A111U | -7.08
126 | C22A G61U | -5.05
127 | A24C A27G | -6.86
128 | C22U C115U | -4.01
129 | C22U G45A A83C | -5.99
130 | G23C G69A | -7.97
131 | G25A C124G | -5.14
132 | G25A C124U | -5.31
133 | C22A G36A C56U | -5.8
134 | U21G C53U C64U C79A | -3.11
135 | A24G G47C A90U | -4.32
136 | A24U G69U C88A C114A | -6.87
137 | A26U C40U | -4.02
138 | A26U C40A | -4.26
139 | A27C C49U | -4.08
140 | C22G G42C | -3.87
141 | A26G C70U C94G A103G G117C | -7.12
142 | C22G G58C | -2.94
143 | A24G G61U | -1.44
144 | C22G A26G C56G A75G | -5.33

Row | Variant | polymerase ribozyme fitness (log ratio)
145 | A26G U112G | -0.342
146 | A26U G60A C97U G110U | -5.7
147 | G23C C49G G51C G61U G117U G128C | -6.88
148 | A26U A50C C56A C124A | -2.3
149 | A26U G45A U54A | -4.06
150 | G23U G120A | -6.57
151 | G25U C80A C88U A121C | -6.51
152 | U21G U87A U133G G135U | -1.41
153 | A26U G52A U112A U131C | -2.99
154 | G25A G45U C88G A90G C99G C115A | -7.43
155 | U21G G42A A121G | -3.11
156 | C22G C28U A37U G48A G71A G110C | -5.6
157 | U21G C53U C123G | 0.377
158 | C22G C34U G60U C94A C97U C98G G113U | -6.85
159 | A26G G48A C53G C89U A91C | -4.13
160 | U21G G61C U87A U133G G135U | -3.09
161 | C22G G93U | -3.03
162 | G25A C49A G57A C89U C97G C115G | -6.47
163 | G25U C56U C123G | -6.4
164 | A26U C72U | -2.63
165 | G25A C64G U81A C114A | -5.93
166 | A24G G128A U130G | -4.18
167 | C22U G52A A84C C104U | -5.74
